Measured values taken from publication PMC10516418.
pKd: −log10 of the molar value.

Target: HMPV F v3B_Δ12 (human metapneumovirus)
Test: BLI; Octet Red384; […] (500.0 nM to 7.8 nM), 300 s association and 300 s dissociation; 30°C, […]; global 1:1 fit

MPE8 antigen-binding fragment (Fab)
pKd: 7.68
